From patent publication US20230313187A1, “MODIFICATIONS OF MAMMALIAN CELLS USING ARTIFICIAL MICRO-RNA TO ALTER THEIR PROPERTIES AND THE COMPOSITIONS OF THEIR PRODUCTS” (DNA TWOPOINTO INC., priority 2020, published 2023)
Values joined by “and” are separate entries in the source; they are usually repeats but may differ in a detail not shown here. Equal entries are not always repeated.

B1: SEQ ID NO: 200: four-hairpin amiRNA, two guides to Cricetulus griseus GMD mRNA (35, 36) and two to GFT mRNA (41, 42) (nucleic acid)
chain: ATCTGATCTTCTGAAGAAAATATATTTCTTTTTATTCATAGCTCTTAACTAGTGGTGATAGCAATGTCAGCAGTGCCTTTAAACTTCTTGATTTCCCAAAGTGAAGCCACAGATGTTTGGGAAATAAAGAAGTTTACAAGTAAGGTTGACCATACTCTACTCTAGTTATATTCTTTAGGCACGAATGTGTGTTTAAAAAAAATAAAAACTAGTGGTGATAGCAATGTCAGCAGTGCCTTCCTCTTAGATCATATTCCAAGGTGAAGCCACAGATGCTTGGAATATAATCTAAGAGGCAAGTAAGGTTGACCATACTCTACTCTAGAGTTGTGTTTTAATGTATATTAATGTTACTAATGTGTTTACTAGTGGTGATAGCAATGTCAGCAGTGCCTTTCAAGTAAAATGAGTATGTGAGTGAAGCCACAGATGTCACATACTCCTTTTACTTGACAAGTAAGGTTGACCATACTCTACTCTAGGTTATTTTTAGTATGATTCTGTAAAAATGAATTAATACTAACTAGTGGTGATAGCAATGTCAGCAGTGCCTTCAATTAGTGGGATCACAACCCGTGAAGCCACAGATGGGGTTGTGATACCACTAATTGCAAGTAAGGTTGACCATACTCTACTCTAGTCAGTTTTATTGATAGTCTTTTCAGTATTATTGATAATCTT
B2: SEQ ID NO: 204: four-hairpin amiRNA, two guides to Homo sapiens GMD mRNA (47, 49) and two to GFT mRNA (52, 50) (nucleic acid)
chain: ATCTGATCTTCTGAAGAAAATATATTTCTTTTTATTCATAGCTCTTAACTAGTGGTGATAGCAATGTCAGCAGTGCCTTAAAACATCTTGATTTCACAAAGTGAAGCCACAGATGTTTGTGAAATAAAGATGTTTTCAAGTAAGGTTGACCATACTCTACTCTAGTTATATTCTTTAGGCACGAATGTGTGTTTAAAAAAAATAAAAACTAGTGGTGATAGCAATGTCAGCAGTGCCTTATTACTTGTAAACACTGGTTCGTGAAGCCACAGATGGAACCAGTGTCTACAAGTAATCAAGTAAGGTTGACCATACTCTACTCTAGAGTTGTGTTTTAATGTATATTAATGTTACTAATGTGTTTACTAGTGGTGATAGCAATGTCAGCAGTGCCTTTCACTACTGTGCTGGCCCCGCGTGAAGCCACAGATGGCGGGGCCAGAACAGTAGTGACAAGTAAGGTTGACCATACTCTACTCTAGGTTATTTTTAGTATGATTCTGTAAAAATGAATTAATACTAACTAGTGGTGATAGCAATGTCAGCAGTGCCTTTGTTGTGTAACAACATAATTTGTGAAGCCACAGATGAAATTATGTTATTACACAACACAAGTAAGGTTGACCATACTCTACTCTAGTCAGTTTTATTGATAGTCTTTTCAGTATTATTGATAATCTT

What was measured:
[1] = tested on: Cricetulus griseus GDP-Mannose 4,6-dehydratase (GMD), and GDP-fucose transporter 1 (GFT) mRNA; assay: Inhibition of antibody fucosylation in CHO with amiRNA targeting GMD and GFT; assay type: cell-based; settings: 14-day fed batch
Source text: A multi-hairpin amiRNA gene was designed to target both Cricetulus griseus GDP-Mannose 4,6-dehydratase (GMD), and GDP-fucose transporter 1 (GFT). […]
Multi-hairpin amiRNA sequence with SEQ ID NO: 200 was placed to the 3′ of an open reading frame encoding a red fluorescent protein (with nucleotide sequence SEQ ID NO: 279) and followed by a rabbit globin polyadenylation sequence. […]

[2] = tested on: Homo sapiens GDP-Mannose 4,6-dehydratase (GMD) and GDP-fucose transporter 1 (GFT) mRNA; assay: Inhibition of antibody fucosylation in HEK cell pools, amiRNA directed toward GMD and GFT; assay type: cell-based; settings: HEK pool
Source text: A second multi-hairpin amiRNA gene was designed to target both Homo sapiens GDP-Mannose 4,6-dehydratase (GMD) with mRNA sequence given by SEQ ID NO: 8, and GDP-fucose transporter 1 (GFT) with mRNA sequence given by SEQ ID NO: 9. The multi-hairpin amiRNA, with nucleotide sequence SEQ ID NO: 204, comprised four hairpins; the first hairpin comprised guide strand sequence SEQ ID NO: 47 (complementary to the mRNA for human GMD, with sequence SEQ ID NO: 8), immediately followed by loop sequence SEQ ID NO: 241 and passenger strand sequence SEQ ID NO: 132; the second hairpin comprised guide strand sequence SEQ ID NO: 52 (complementary to the mRNA for human GFT, with sequence given by SEQ ID NO: 9), immediately followed by loop sequence SEQ ID NO: 241 and passenger strand sequence SEQ ID NO: 137; the third hairpin comprised guide strand sequence SEQ ID NO: 50 (complementary to the mRNA for human GFT, with sequence SEQ ID NO: 9), immediately followed by loop sequence SEQ ID NO: 241 and passenger strand sequence SEQ ID NO: 135 and the fourth hairpin comprised guide strand sequence SEQ ID NO: 49 (complementary to the mRNA for human GMD, with sequence given by SEQ ID NO: 8), immediately followed by loop sequence SEQ ID NO: 241 and passenger strand sequence SEQ ID NO: 134. Each passenger strand sequence was complementary to its corresponding guide strand sequence, except that the bases in the passenger strand sequences corresponding to the 5′ base of the guide strand and the twelfth base of the guide strand were changed to be non-complementary. The first and twelfth bases of guide strand with SEQ ID NO: 47 are T and G respectively, the corresponding bases in the corresponding passenger strand sequence SEQ ID NO: 132 are C and A respectively. […]
The multi-hairpin amiRNA sequences were placed to the 3′ of an open reading frame encoding a red fluorescent protein (with nucleotide sequence SEQ ID NO: 279) and followed by a rabbit globin polyadenylation sequence. […]

| Molecule | G0 + G1 % (area) ([1]; afucosylated antibody heavy chain, CMV promoter) | G0F + G1F (% area) ([1]; fucosylated antibody heavy chain, BDL=below detection limit, listed as 200) | G0 + G1 % (area) ([2]; afucosylated antibody, 7-day transient culture) | Titer ([2]; antibody in culture supernatant, 7-day culture, listed as 204) | G0F + G1F (% area) ([2]; fucosylated antibody, 7-day transient culture, BDL=below detection limit, listed as 204) |
| --- | --- | --- | --- | --- | --- |
| B1 | 100 % (area) | no fucose was detectable by mass spectroscopy and BDL |  |  |  |
| B2 |  |  | 100 % (area) | 126 mg/L and 120 mg/L | complete abolition of antibody fucosylation and BDL |
